The values that follow come from article PMC8624084, “Persulfidation of Nitrate Reductase 2 Is Involved in L-Cysteine Desulfhydrase-Regulated Rice Drought Tolerance” (International Journal of Molecular Sciences, 2021).

As usually defined, the Km is the concentration of substrate that gives half-maximal velocity.

What all share (format): biochemical, Oryza sativa
Substrate in data set [1]: CC(=O)OC[C@H](N)C(=O)O
Kind of data set: OAS-TL activity assay, Lineweaver-Burk. To be noted: OAS-TL (cysteine synthase) side reaction; co-substrate Na2S.

Substrate in data set [2]: S
Kind of data set: OAS-TL activity assay, Lineweaver-Burk. To be noted: OAS-TL (cysteine synthase) side reaction; co-substrate OAS.

Substrate in the data set “purified protein”: N[C@@H](CS)C(=O)O
Kind of data set: purified protein. The following applies: L-cysteine desulfhydrase (CDes) reaction, method section: 100 mM Tris/HCl pH 8.5, 2.5 mM DTT, 37 °C.

B1: OsLCD1 (Oryza sativa Japonica Group) (protein)
chain: MASIPPDDDAAAAAAAGAAENGYGNGKGNGNGPAPRPPPAKRPRSVISAAQIRAEFEHHEAGVARVNNGSFGCCPSSLLDAQARWQRLFIAQPDDFYFHALQPGLRRSRAAVAGLVNAGDVAEVSLVDNATTAAAIVLQHAAWSFAEGRFSRGDAVLMLHYAYGAVKKSIHAYVARAGATVVEVPLPFPVASADAIIAEFRAALDVAKAGGRKVRLAVIDHITSMPSVVIPVKELVAICREEGVDKVFIDAAHSIGQVPVDVRDIGADFYTSNLHKWFFCPPAVAFLHTRKDDPIASQLHHPVVSHEYGNGLPMESGWIGTRDYSAQLVVPESIDFVNRFEGGIEGIRSRNHEKVIEMGKMLAEAWGTFLGTPPELCGSMVMVGLPGCLGVESDDDVMRMRTMLRKDFMVEVPIYYNSRRVEAQEMAKDKNGDAVTGYVRISHQVYNVTEDYEKLRDAVNKLVADGFTSSKLRPSQKQETMA
notes: full length, 482 residues, 55 kDa, N-terminal 6xHis tag (pET-28a(+)), E. coli Rosetta (DE3), Ni-NTA purified
In the case of B1, the values for the Km (in data set [1]; in data set [2]; in “purified protein”) were 3.76 ± 0.41 mM, 8.13 ± 0.72 mM and 0.15 ± 0.02 mM, respectively.
